Values belong to the binder of their own block, whether it stands above or below them.
Tests used:
[1] = target: T1, human FcγRIIb receptor on CHO-K1 cells (clone 223) (human, UniProt P31994 43-310); assay: cell-based or functional assay
T1 sequence (looked up): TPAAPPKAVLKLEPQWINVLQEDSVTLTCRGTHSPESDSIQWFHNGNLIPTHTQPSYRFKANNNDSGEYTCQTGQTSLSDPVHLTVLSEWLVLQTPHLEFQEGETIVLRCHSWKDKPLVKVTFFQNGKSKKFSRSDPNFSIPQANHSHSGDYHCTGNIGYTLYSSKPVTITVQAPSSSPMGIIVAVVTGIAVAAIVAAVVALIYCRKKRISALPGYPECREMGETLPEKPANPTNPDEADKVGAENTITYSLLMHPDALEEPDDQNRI

[2] = target: T2, human CCL2 (MCP1) - wild type (wt) (human, UniProt P13500 24-99); assay: cell-based or functional assay
[3] = target: T2, human CCL2 (MCP1) - wild type (wt); assay: SPR T200, 25 C, anti-human Fc capture, 1:1 model, pH 8.3
Method: (§1) An antibody capture system was established. 13000 MAb<h-Fc-pan>M-R10Z8E9-IgG (Roche) were immobilized at 25° C. at 18 μg/ml in 10 mM sodium acetate buffer pH 5.0, by EDC/NHS coupling as described by the manufacturer. The capture system was regenerated by an injection at 20 μl/min with HBS buffer (100 mM HEPES pH 7.4, 1.5 M NaCl, 0.05% (w/v) Tween 20), followed by a 1 min 15 see injection with 10 mM NaOH and two 10 mM glycine buffer pH 2.5 injections for 1 min. Antibodies were captured were injected for 30 see at 10 μl/min at 80 nM concentration diluted in the respective system buffer. […] The analyte contact time was 3 min and the dissociation time was 10 min. Analyte kinetics were performed at 50 μl/min.
(§2) The Biaevaluation software V.3.0 was used according to the instructions of the manufacturer GEHC. A 1:1 binding model with RMAX local was applied to determine kinetic rates.

[4] = target: T2, human CCL2 (MCP1) - wild type (wt); assay: SPR T200, 25 C, anti-human Fc capture, 1:1 model, pH 5.5
Method: as §1, §2

[5] = target: T3, human CCL2 (MCP1) - P8A variant (human, UniProt P13500 24-99); assay: SPR T200, 37 C, antibody captured, 1:1 model
T3 construct: In-house point mutant that cannot dimerise; also called monomeric human CCL2; monomeric CCL2
Method: (§3) Antibody clone supernatants were diluted 1:2 in system buffer and were captured for 1 min at 5 μl/min. […] Analyte kinetics were performed at 30 μl/min. As analyte in solution wt human CCL2 or monomeric CCL2 P8A variant CCL2 were used. Analytes were injected at 90 nM highest concentration. The analyte contact time was 3 min and the dissociation time was 10 min. The Biaevaluation software V.3.0 was used according to the instructions of the manufacturer GEHC. A 1:1 binding model with RMAX local was applied to apparently estimate kinetic rates.

[6] = target: T2, human CCL2 (MCP1) - wild type (wt); assay: SPR T200, 37 C, antibody captured, 1:1 model
Method: as §3

[7] = target: T2, human CCL2 (MCP1) - wild type (wt); assay: SPR T200, 25 C, anti-human Fc capture, 1:1 model, pH 7.9
Method: as §1, §2

[8] = target: T2, human CCL2 (MCP1) - wild type (wt); assay: SPR T200, 25 C, anti-human Fc capture, 1:1 model, pH 7.4
Method: as §1, §2

[9] = target: T2, human CCL2 (MCP1) - wild type (wt); assay: SPR, C1 chip, anti-human Fc capture, 25 C, pH 7.4, Langmuir 1:1
Method: The sample and system buffer was PBS-T (10 mM phosphate buffered saline including 0.05% Tween20) pH 7.4. The flow cell was set to 25° C.—and the sample block set to 12° C.—and primed with running buffer twice. The bispecific antibody was captured by injecting a 2 μg/ml solution for 60 see at a flow rate of 10 μl/min. Association was measured by injection of human CCL2 (wt) in various concentrations in solution for 150 see at a flow rate of 30 μl/min starting with 30 nM in 1:10 dilutions. The dissociation phase was monitored for up to 1200 sec and triggered by switching from the sample solution to running buffer. […] Bulk refractive index differences were corrected by subtracting the response obtained from a goat anti human IgG Fc surface. Blank injections are also subtracted (=double referencing). For calculation of kinetic parameters, the Langmuir 1:1 model was used.

[10] = target: T2, human CCL2 (MCP1) - wild type (wt); assay: SPR T200, 25 C, anti-human Fc capture, 1:1 model, pH 6.7
[11] = target: T2, human CCL2 (MCP1) - wild type (wt); assay: cell-based or functional assay; remark: listed apart in the source
[12] = target: T2, human CCL2 (MCP1) - wild type (wt); assay: SPR T200, 25 C, anti-human Fc capture, 1:1 model, pH 5.9
Method: as §1, §2

[13] = target: T2, human CCL2 (MCP1) - wild type (wt); assay: SPR T200, 25 C, anti-human Fc capture, 1:1 model, pH 6.3
[14] = target: T2, human CCL2 (MCP1) - wild type (wt); assay: SPR T200, 25 C, anti-human Fc capture, 1:1 model, pH 7.1
Method: as §1, §2

- EC50 (read off the curve) of the depletion of CCL2 from the supernatant of FcγRIIb CHO cells [1]: ~1 nM
- IC50, inhibition of THP-1 migration (chemotaxis assay) [2]: 0.3 µg/mL
B1: CKLO2-GG03/GG04 (=P1AF8140) (bispecific antibody)
heavy 1: DIQMTQSPSSLSASVGDRVTITCKAFEDIYNRRAWYQQKPGKAPKLLIHGATSLEHGVPSRFSGSGSGTDYTLTISSLQPEDFATYYCQQFWSAPYTFGGGTKVEIKSSASTKGPSVFPLAPSSKSTSGGTAALGCLVKDYFPEPVTVSWNSGALTSGVHTFPAVLQSSGLYSLSSVVTVPSSSLGTQTYICNVNHKPSNTKVDKKVEPKSCDKTHTCPPCPAPEYLGGDSVFLFPPKPKDVLMISRTPEVTCVVIDVSHEDPEVKFNWYVDGVEVHNAKTKPREEQYNSTYRVVSVLPVLHRDWLNGKEYKCKVSNKALPKPIEKTISKAKGQRREPQVYTLPPCREEMTKNQVSLWCLVKGFYPSDIAVEWESNGQPENNYKTTPPVLDSDGSFFLYSKLTVDKSRWQQGNVFSCSVMHEALHAHYTRKELSLSP
heavy 2: not shown
light 1: QVQLVQSGAEVKKPGSSVKVSCKASGLTISHTYMHWVRQAPGQGLEWMGRIDPDNHNTKFDPKFQGRVTITADTSTSTAYMELSSLRSEDTAVYYCARGVFGFFEHWGQGTTVTVSSASVAAPSVFIFPPSDEQLKSGTASVVCLLNNFYPREAKVQWKVDNALQSGNSQESVTEQDSKDSTYSLSSTLTLSKADYEKHKVYACEVTHQGLSSPVTKSFNRGEC
light 2: EIVLTQSPATLSLSPGERATLSCRASQHVSDAYLAWYQQKPGQAPRLLIYDASDRAEGVPARFSGSGSGTDFTLTISSLEPEDFAVYYCHQYIHLHSFTFGQGTKVEIKRTVAAPSVFIFPPSDRKLKSGTASVVCLLNNFYPREAKVQWKVDNALQSGNSQESVTEQDSKDSTYSLSSTLTLSKADYEKHKVYACEVTHQGLSSPVTKSFNRGEC

- Kd [3]: 0.004 nM
- t 1/2-diss. [3]: 35 min
- Kd [4]: 2000 nM
- t 1/2-diss. [4]: 0.03 min
- Kd [5]: 0.046 nM
- T1/2 [5]: 25 min
- Kd [6]: 0.036 nM
- T1/2 [6]: 33 min
- Kd [7]: 0.004 nM
- t 1/2-diss. [7]: 25 min
- Kd [8]: 0.01 nM
- t 1/2-diss. [8]: 33 min
- t 1/2* [9]: 27 min
- Kd [10]: 0.2 nM
- t 1/2-diss. [10]: 8 min
- THP1 chemotaxis [fold change compared to IgG control] [11]: 6.5 fold
- Kd [12]: 13 nM
- t 1/2-diss. [12]: 1 min
- Kd [13]: 1 nM
- t 1/2-diss. [13]: 3 min
- Kd [14]: 0.02 nM
- t 1/2-diss. [14]: 20 min
B2: ABN912 (antibody, IgG1, V domains shown)
VH: EVQLVQSGGGLVQPGGSLRLSCAASGFTFSHYWMSWVRQAPGKGLEWLANIEQDGSEKYYVDSVKGRFTISRDNAKNSLYLQMNSLRAEDTAVYFCARDLEGLHGDGYFDLWGRGTLVTVSS
VL: AIQLTQSPSSLSASVGDRVILTCRASQGVSSALAWYQQKPGKAPKLLIYDASSLESGVPSRFSGSGSGPDFTLTISSLQPEDFATYFCQQFNSYPLTFGGGTKVEIK
notes: IgG1 with kappa light chain; also called AB912; CCL2-0003

— patent US20240360208A1 (Hoffmann-La Roche, published 2024)
